Results: US20230272055A1 (Incyte, published 2023)

Target: T1, Recombinant MBP-mutCALR Type 1 fusion protein (human)
T1 construct: custom made at Cepter; also called recombinant mutCALR protein
Assay: SPR, IgG captured, 1:1 fit, Exp. 2
Procedure: Experiment 2: Recombinant MBP-mutCALR Type 1 fusion protein was custom made at Cepter (cepterbiopartners.com). Data for the interaction of antibodies with recombinant mutCALR protein were collected at 25° C. on a Biacore 8K instrument (Cytiva, Marlborough, Mass.), and all reagents were obtained from Cytiva unless otherwise specified. The experiments were conducted using Tris-buffered saline (pH 7.2), 0.005% Surfactant P20, 1 mM CaCl₂) as running buffer. To prepare the capture surfaces, anti-human IgG (Fc) antibodies (Product #29234600) was amine-coupled onto a CM4 chip (Product #BR100534) under standard conditions using an Amine Coupling Kit (Product #BR100050). […] The kinetics parameters were obtained by applying 1:1 binding model to fit the data from multiple-cycle injection experiments using Biacore Insight Evaluation software.

Row | Binder | Kd [nM] | koff [s⁻¹] | kon [M⁻¹ s⁻¹]
1 | anti-mutCALR antibody clone 75 (antibody, human IgG1, lambda, N297A, V domains shown, human IgG1 N297A variant of clone 6) VH: EVQLVQSGAEVKKPGASVKVSCKVSGYTLTELSMQWVRQAPGKGLEWMGGFDPDDGETMYAEKFQGRLTVTEDTSTDTVYMELRSLTSEDTALYFCATSPGYDFFDYWGQGTLVTVSS VL: SYVLTQPPSVSVAPGKTARITCGGNNIGSKSVHWYQQKPGQAPVLVVYDDSDRPSGIPERFSGSNSGNTATLTISRVEAGDEADYYCQVWDSSNDLLIFGGGTKLTVLG | 0.637 | 0.0039 | 6.12e+06
2 | anti-mutCALR antibody clone 77 (antibody, human IgG1, lambda, N297A, V domains shown, human IgG1 N297A variant of clone 6) VH: EVQLVQSGAEVKKPGASVKVSCKVSGYTLTELSMQWVRQAPGKGLEWMGGFDPDSGETMYAEKFQGRLTVTEDTSTDTVYMELRSLTSEDTALYFCATSPGYDFFDYWGQGTLVTVSS VL: SYVLTQPPSVSVAPGKTARITCGGNNIGSKSVHWYQQKPGQAPVLVVYDDSDRPSGIPERFSGSNSGNTATLTISRVEAGDEADYYCQVWDSSNDLLIFGGGTKLTVLG | 5.61 | 0.0175 | 3.13e+06
3 | anti-mutCALR antibody clone 132 (antibody, human IgG1, lambda, N297A, V domains shown, human IgG1 N297A variant of clone 15) VH: EVQLVQSGAEVKKPGASVKVSCKVSGYTLTELSMQWVRQAPGKGLEWMGGFDPDEGETMYAEKFQGRLTVTEDTSTDTVYMELSSLRSEDTAVYFCATSPGYDFFDYWGQGTLVTVSS VL: SYELTQPPSVSVAPGKTARITCGGDNIGSKSVHWYQQKPGQAPVLVVYDDSDRPSGIPERFSGSNSGNTATLTINRVEAGDEADYYCQVWDSSNDLLIFGGGTKLTVLG | 2.16 | 0.00244 | 1.13e+06
4 | anti-mutCALR antibody clone 76 (antibody, human IgG1, lambda, N297A, V domains shown, human IgG1 N297A variant of clone 6) VH: EVQLVQSGAEVKKPGASVKVSCKVSGYTLTELSMQWVRQAPGKGLEWMGGFDPDAGETMYAEKFQGRLTVTEDTSTDTVYMELRSLTSEDTALYFCATSPGYDFFDYWGQGTLVTVSS VL: SYVLTQPPSVSVAPGKTARITCGGNNIGSKSVHWYQQKPGQAPVLVVYDDSDRPSGIPERFSGSNSGNTATLTISRVEAGDEADYYCQVWDSSNDLLIFGGGTKLTVLG | 4.9 | 0.0155 | 3.16e+06
5 | anti-mutCALR antibody clone 131 (antibody, human IgG1, lambda, N297A, V domains shown, human IgG1 N297A variant of clone 15) VH: EVQLVQSGAEVKKPGASVKVSCKVSGYTLTELSMQWVRQAPGKGLEWMGGFDPDSGETMYAEKFQGRLTVTEDTSTDTVYMELSSLRSEDTAVYFCATSPGYDFFDYWGQGTLVTVSS VL: SYELTQPPSVSVAPGKTARITCGGDNIGSKSVHWYQQKPGQAPVLVVYDDSDRPSGIPERFSGSNSGNTATLTINRVEAGDEADYYCQVWDSSNDLLIFGGGTKLTVLG | 4.83 | 0.00481 | 996000
6 | anti-mutCALR antibody clone 81 (antibody, human IgG1, lambda, N297A, V domains shown, human IgG1 N297A variant of clone 6) VH: EVQLVQSGAEVKKPGASVKVSCKVSGYTLTELSMQWVRQAPGKGLEWMGGFDPDAGETMYAEKFQGRLTVTEDTSTDTVYMELSSLRSEDTAVYFCATSPGYDFFDYWGQGTLVTVSS VL: SYVLTQPPSVSVAPGKTARITCGGNNIGSKSVHWYQQKPGQAPVLVVYDDSDRPSGIPERFSGSNSGNTATLTISRVEAGDEADYYCQVWDSSNDLLIFGGGTKLTVLG | 6.62 | 0.00494 | 746000
7 | anti-mutCALR antibody clone 125 (antibody, human IgG1, lambda, N297A, V domains shown, human IgG1 N297A variant of clone 15) VH: EVQLVQSGAEVKKPGASVKVSCKVSGYTLTELSMQWVRQAPGKGLEWMGGFDPDAGETMYAEKFQGRLTVTEDTSTDTVYMELRSLTSEDTALYFCATSPGYDFFDYWGQGTLVTVSS VL: SYELTQPPSVSVAPGKTARITCGGDNIGSKSVHWYQQKPGQAPVLVVYDDSDRPSGIPERFSGSNSGNTATLTINRVEAGDEADYYCQVWDSSNDLLIFGGGTKLTVLG | 4.76 | 0.0154 | 3.23e+06
8 | anti-mutCALR antibody clone 130 (antibody, human IgG1, lambda, N297A, V domains shown, human IgG1 N297A variant of clone 15) VH: EVQLVQSGAEVKKPGASVKVSCKVSGYTLTELSMQWVRQAPGKGLEWMGGFDPDAGETMYAEKFQGRLTVTEDTSTDTVYMELSSLRSEDTAVYFCATSPGYDFFDYWGQGTLVTVSS VL: SYELTQPPSVSVAPGKTARITCGGDNIGSKSVHWYQQKPGQAPVLVVYDDSDRPSGIPERFSGSNSGNTATLTINRVEAGDEADYYCQVWDSSNDLLIFGGGTKLTVLG | 4.71 | 0.00509 | 1.08e+06
9 | anti-mutCALR antibody clone 128 (antibody, human IgG1, lambda, N297A, V domains shown, human IgG1 N297A variant of clone 15) VH: EVQLVQSGAEVKKPGASVKVSCKVSGYTLTELSMQWVRQAPGKGLEWMGGFDPDDAETMYAEKFQGRLTVTEDTSTDTVYMELRSLTSEDTALYFCATSPGYDFFDYWGQGTLVTVSS VL: SYELTQPPSVSVAPGKTARITCGGDNIGSKSVHWYQQKPGQAPVLVVYDDSDRPSGIPERFSGSNSGNTATLTINRVEAGDEADYYCQVWDSSNDLLIFGGGTKLTVLG | 1.61 | 0.00207 | 1.29e+06
10 | anti-mutCALR antibody clone 129 (antibody, human IgG1, lambda, N297A, V domains shown, human IgG1 N297A variant of clone 15) VH: EVQLVQSGAEVKKPGASVKVSCKVSGYTLTELSMQWVRQAPGKGLEWMGGFDPDDGETMYAEKFQGRLTVTEDTSTDTVYMELSSLRSEDTAVYFCATSPGYDFFDYWGQGTLVTVSS VL: SYELTQPPSVSVAPGKTARITCGGDNIGSKSVHWYQQKPGQAPVLVVYDDSDRPSGIPERFSGSNSGNTATLTINRVEAGDEADYYCQVWDSSNDLLIFGGGTKLTVLG | 0.53 | 0.00527 | 9.94e+06
11 | anti-mutCALR antibody clone 84 (antibody, human IgG1, lambda, N297A, V domains shown, human IgG1 N297A variant of clone 6) VH: EVQLVQSGAEVKKPGASVKVSCKVSGYTLTELSMQWVRQAPGKGLEWMGGFDPDDAETMYAEKFQGRLTVTEDTSTDTVYMELSSLRSEDTAVYFCATSPGYDFFDYWGQGTLVTVSS VL: SYVLTQPPSVSVAPGKTARITCGGNNIGSKSVHWYQQKPGQAPVLVVYDDSDRPSGIPERFSGSNSGNTATLTISRVEAGDEADYYCQVWDSSNDLLIFGGGTKLTVLG | 2.01 | 0.0018 | 892000
12 | anti-mutCALR antibody clone 83 (antibody, human IgG1, lambda, N297A, V domains shown, human IgG1 N297A variant of clone 6) VH: EVQLVQSGAEVKKPGASVKVSCKVSGYTLTELSMQWVRQAPGKGLEWMGGFDPDEGETMYAEKFQGRLTVTEDTSTDTVYMELSSLRSEDTAVYFCATSPGYDFFDYWGQGTLVTVSS VL: SYVLTQPPSVSVAPGKTARITCGGNNIGSKSVHWYQQKPGQAPVLVVYDDSDRPSGIPERFSGSNSGNTATLTISRVEAGDEADYYCQVWDSSNDLLIFGGGTKLTVLG | 1.76 | 0.00992 | 5.62e+06
13 | anti-mutCALR antibody clone 82 (antibody, human IgG1, lambda, N297A, V domains shown, human IgG1 N297A variant of clone 6) VH: EVQLVQSGAEVKKPGASVKVSCKVSGYTLTELSMQWVRQAPGKGLEWMGGFDPDSGETMYAEKFQGRLTVTEDTSTDTVYMELSSLRSEDTAVYFCATSPGYDFFDYWGQGTLVTVSS VL: SYVLTQPPSVSVAPGKTARITCGGNNIGSKSVHWYQQKPGQAPVLVVYDDSDRPSGIPERFSGSNSGNTATLTISRVEAGDEADYYCQVWDSSNDLLIFGGGTKLTVLG | 6.23 | 0.00475 | 762000
14 | anti-mutCALR antibody clone 80 (antibody, human IgG1, lambda, N297A, V domains shown, human IgG1 N297A variant of clone 6) VH: EVQLVQSGAEVKKPGASVKVSCKVSGYTLTELSMQWVRQAPGKGLEWMGGFDPDDGETMYAEKFQGRLTVTEDTSTDTVYMELSSLRSEDTAVYFCATSPGYDFFDYWGQGTLVTVSS VL: SYVLTQPPSVSVAPGKTARITCGGNNIGSKSVHWYQQKPGQAPVLVVYDDSDRPSGIPERFSGSNSGNTATLTISRVEAGDEADYYCQVWDSSNDLLIFGGGTKLTVLG | 0.638 | 0.00248 | 
15 | anti-mutCALR antibody clone 78 (antibody, human IgG1, lambda, N297A, V domains shown, human IgG1 N297A variant of clone 6) VH: EVQLVQSGAEVKKPGASVKVSCKVSGYTLTELSMQWVRQAPGKGLEWMGGFDPDEGETMYAEKFQGRLTVTEDTSTDTVYMELRSLTSEDTALYFCATSPGYDFFDYWGQGTLVTVSS VL: SYVLTQPPSVSVAPGKTARITCGGNNIGSKSVHWYQQKPGQAPVLVVYDDSDRPSGIPERFSGSNSGNTATLTISRVEAGDEADYYCQVWDSSNDLLIFGGGTKLTVLG | 2.75 | 0.0024 | 873000
16 | anti-mutCALR antibody clone 124 (antibody, human IgG1, lambda, N297A, human IgG1 N297A variant of clone 15) heavy: not shown light: SYELTQPPSVSVAPGKTARITCGGDNIGSKSVHWYQQKPGQAPVLVVYDDSDRPSGIPERFSGSNSGNTATLTINRVEAGDEADYYCQVWDSSNDLLIFGGGTKLTVLGQPKAAPSVTLFPPSSEELQANKATLVCLISDFYPGAVTVAWKADSSPVKAGVETTTPSKQSNNKYAASSYLSLTPEQWKSHRSYSCQVTHEGSTVEKTVAPTECS | 1.04 | 0.00128 | 1.23e+06
17 | anti-mutCALR antibody clone 126 (antibody, human IgG1, lambda, N297A, V domains shown, human IgG1 N297A variant of clone 15) VH: EVQLVQSGAEVKKPGASVKVSCKVSGYTLTELSMQWVRQAPGKGLEWMGGFDPDSGETMYAEKFQGRLTVTEDTSTDTVYMELRSLTSEDTALYFCATSPGYDFFDYWGQGTLVTVSS VL: SYELTQPPSVSVAPGKTARITCGGDNIGSKSVHWYQQKPGQAPVLVVYDDSDRPSGIPERFSGSNSGNTATLTINRVEAGDEADYYCQVWDSSNDLLIFGGGTKLTVLG | 1.19 | 0.00153 | 1.29e+06
18 | anti-mutCALR antibody clone 79 (antibody, human IgG1, lambda, N297A, V domains shown, human IgG1 N297A variant of clone 6) VH: EVQLVQSGAEVKKPGASVKVSCKVSGYTLTELSMQWVRQAPGKGLEWMGGFDPDDAETMYAEKFQGRLTVTEDTSTDTVYMELRSLTSEDTALYFCATSPGYDFFDYWGQGTLVTVSS VL: SYVLTQPPSVSVAPGKTARITCGGNNIGSKSVHWYQQKPGQAPVLVVYDDSDRPSGIPERFSGSNSGNTATLTISRVEAGDEADYYCQVWDSSNDLLIFGGGTKLTVLG | 1.39 | 0.00631 | 4.53e+06
19 | anti-mutCALR antibody clone 133 (antibody, human IgG1, lambda, N297A, V domains shown, human IgG1 N297A variant of clone 15) VH: EVQLVQSGAEVKKPGASVKVSCKVSGYTLTELSMQWVRQAPGKGLEWMGGFDPDDAETMYAEKFQGRLTVTEDTSTDTVYMELSSLRSEDTAVYFCATSPGYDFFDYWGQGTLVTVSS VL: SYELTQPPSVSVAPGKTARITCGGDNIGSKSVHWYQQKPGQAPVLVVYDDSDRPSGIPERFSGSNSGNTATLTINRVEAGDEADYYCQVWDSSNDLLIFGGGTKLTVLG | 0.826 | 0.00702 | 8.51e+06
